# From patent US10501552B2, “Multivalent molecules comprising DR5-binding domains” (MacroGenics, Inc., priority 2015, dated 2019)
# B1: DR5 mAb 2: murine anti-human DR5 monoclonal antibody; VL SEQ ID NO:13, VH SEQ ID NO:18 (antibody, listed as Mus musculus, V domains shown)
# VH: KVQLQQSGAELVKPGASVKLSCKASGYTFTEYILHWVKQKSGQGLEWIGWFYPGNNNIKYNEKFKDKATLTADKSSSTVYMELSRLTSEDSAVYFCARHEQGPGYFDYWGQGTTLTVSS
# VL: DIVMTQSHKFMSTSVGDRVSITCKASQDVNTAVAWYQQKPGQSPKLLIYWASTRHTGVPDRFTGSGSGTDYTLTIKSVQAEDLTLYYCQQHYITPWTFGGGTKLEIK
# modifications: (1)..(119) Anti-DR5 Antibody mAb 2 Heavy Chain Variable Region; (1)..(107) Anti-DR5 Antibody mAb 2 Light Chain Variable Region
# B2: DR5 mAb 1: anti-human DR5 monoclonal antibody; VL SEQ ID NO:3, VH SEQ ID NO:8 (antibody, listed as Mus musculus, V domains shown)
# VH: EVKFLESGGGLVQPGGSLKLSCVASGFDFSRYWMSWVRQAPGKGLEWIGEINPDSNTINYTPSLKDKFIISRDNAKNTLYLQMTKVRSEDTALYYCTRRAYYGNPAWFAYWGQGTLVTVSS
# VL: DIVLTQSPASLAVSLGQRATISCRASKSVSSSGYSYMHWYQQKPGQPPKVLIFLSSNLDSGVPARFSGSGSGTDFTLNIHPVEDGDAATYYCQHSRDLPPTFGGGTKLEIK
# modifications: (1)..(121) Anti-DR5 Antibody mAb 1 Heavy Chain Variable Region; (1)..(111) Anti-DR5 Antibody mAb 1 Light Chain Variable Region
# Tests used:
# [1] = tested on: Hs700T; assay: […]-GLO cell viability assay with vorinostat; type: cell-based; details: Hs700T (Pancreas); 1 μg/ml + 1 μM Vorinostat
# [2] = tested on: HPAFII; assay: […]-GLO cell viability assay with vorinostat; type: cell-based; details: HPAFII (Pancreas); 1 μg/ml + 10 μM Vorinostat
# [3] = tested on: MDA-MB-175VII; assay: […]-GLO cell viability assay with vorinostat; type: cell-based; details: MDA-MB-175VII (Breast); 1 μg/ml + 1 μM Vorinostat
# [4] = tested on: SKBR3; assay: […]-GLO cell viability assay with vorinostat; type: cell-based, human; details: SKBR3 (Breast); 1 μg/ml + 1 μM Vorinostat
# [5] = tested on: NCI-N87; assay: […]-GLO cell viability assay with vorinostat; type: cell-based; details: NCI-N87 (Stomach); 1 μg/ml + 1 μM Vorinostat
# [6] = tested on: 22RV1; assay: […]-GLO cell viability assay with vorinostat; type: cell-based; details: 22RV1 (Prostate); 1 μg/ml + 10 μM Vorinostat
# [7] = tested on: Hs746T; assay: […]-GLO cell viability assay with vorinostat; type: cell-based; details: Hs746T (Stomach); 1 μg/ml + 10 μM Vorinostat
# [8] = tested on: Calu3; assay: […]-GLO cell viability assay with vorinostat; type: cell-based; details: Calu3 (Lung); 1 μg/ml + 1 μM Vorinostat
# [9] = tested on: human DR5-Fc fusion protein; assay: competition for binding to immobilized DR5-Fc fusion; details: for amount of immobilized biotinylated antibody: 1 μg/mL biotinylated DR5 mAb, 1 μg/mL DR5-Fc Fusion coat
# Sequence of human DR5-Fc fusion protein (as listed by the source): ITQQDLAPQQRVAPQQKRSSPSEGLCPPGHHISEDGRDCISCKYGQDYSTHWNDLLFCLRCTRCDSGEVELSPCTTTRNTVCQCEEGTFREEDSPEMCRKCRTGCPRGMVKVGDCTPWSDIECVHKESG
# Experimental: In order to determine whether the antibodies bound to different DR5 epitopes, a human DR5-Fc fusion protein was prepared and was coated to an immobilized surface.
# [10] = target: cynomolgus monkey DR5 (His-tagged); assay: Biacore analysis of binding kinetics; set-up: ka / kd: unit not given here; details: tested as DR5×CD3 mAb 2 diabody
# Experimental: Bispecific DR5×CD3 diabodies were incubated with His-tagged DR5 and the kinetics of binding was determined via Biacore analysis. […] FIG. 6, Panels A-D show the results for human DR5. FIG. 6, Panels E-H show the results for cynomolgus monkey DR5.
# [11] = tested on: MDA-MB-361; assay: […]-GLO cell viability assay with vorinostat; type: cell-based; details: MDA-MB-361 (Breast); 1 μg/ml + 10 μM Vorinostat
# [12] = tested on: COLO205; assay: MTS cell proliferation assay; type: cell-based; details: COLO205 (Colon); 1 μg/ml, ±10 μg/ml αmFc; two days
# Experimental: Cell lines obtained from ATCC were cultured under standard tissue culture conditions. Each cell line was plated at ˜2×10^4 cells/well (in 96-well plates), and incubated overnight in F12/DMEM media supplemented with 10% FBS. […] Cell viability was determined using Promega CellTiter 96® AQeous Non-Radioactive Cell Proliferation Assay (Cat # G5430) essentially as described in the manufacturer's instructions to assay the amount of soluble formazan produced by cellular reduction of the MTS, which is a measure of the number of viable cells in the culture. Briefly, MTS/PMS regent was added to the wells and the absorbance at 490 nm (referenced at […]) was read in a Molecular Devices ThermoMax microplate reader.
# Similar studies were performed over a range of anti-DR5 mAb concentrations from ˜10^−3 nM to ˜10^2 nM. The data for COLO205 cells is provided in FIG. 13, and are representative of cell lines sensitive to the antibodies of the invention.
# The cytotoxicity of tetravalent DR5-Binding Molecules of the present invention was investigated. […] His-tagged TRAIL (R&D systems) was used as a positive control.
# Similar studies were performed over a range of anti-DR5 mAb concentrations from ˜10^−3 nM to ˜10^2 nM.
# His-tagged TRAIL (R&D systems) was used as a positive control.
# [13] = tested on: BT474; assay: […]-GLO cell viability assay with vorinostat; type: cell-based; details: BT474 (Breast); 1 μg/ml + 10 μM Vorinostat
# [14] = tested on: 786O; assay: […]-GLO cell viability assay with vorinostat; type: cell-based; details: 786O (Kidney); 1 μg/ml + 1 μM Vorinostat
# [15] = tested on: lung cancer tissue; assay: tissue staining with labeled molecule; type: binding; details: 5 μg/mL
# Description: (§1) The results presented in FIGS. 15A-15B, 16, and Table 10, thus indicate that a tetravalent DR5-Binding Molecule (bispecific for two epitopes of DR5) was capable of specifically binding to cancer cells.
# [16] = tested on: colon cancer tissue; assay: tissue staining with labeled molecule; type: binding; details: 5 μg/mL
# Description: as §1
# [17] = tested on: normal tissue (colon, liver, lung, pancreas, kidney, heart); assay: tissue staining with labeled molecule; type: binding; details: 5 μg/mL
# Description: as §1
# [18] = tested on: target tumor cells (A549, SKMES, DU145, A375, SKBR3, JIMT); assay: LDH release cytotoxicity with PBMC, comparison of DR5×CD3 diabodies; type: cell-based, human; details: VL and VH Domains tested as DR5×CD3 mAb 2 diabodies, 24 hours, 20:1
# Experimental: In order to make such a comparison, a bispecific DR5×CD3 diabody having the structure shown in FIG. 1 containing the VL and VH Domains of these anti-DR5 antibodies and the VL and VH Domains of CD3 mAb 2 were prepared essentially as described above. The first and second The prepared diabodies were designated “DR5 mAb 1×CD3 mAb 2”; “DR5 mAb 2×CD3 mAb 2”; “DR5 mAb 3×CD3 mAb 2”; and “DR5 mAb 4×CD3 mAb 2”.
# Target tumor cells were incubated with one of these diabodies or with the control diabody (4-4-20×CD3 mAb 2) in the presence of peripheral blood mononuclear cells (PBMC) and target tumor cells for 24 hours at an effector to target cell ratio of 20:1. The percentage cytotoxicity was determined by measuring the release of lactate dehydrogenase (LDH) into the media by damaged cells.
# The employed target tumor cells were: A549 adenocarcinomic human alveolar basal epithelial cells (FIG. 10A), SKMES human lung cancer cells (FIG. 10B), DU145 human prostate cancer cells (FIG. 10C), A375 human malignant melanoma cells (FIG. 10D), SKBR3 human HER2-overexpressing breast carcinoma cells (FIG. 10E), and JIMT human breast carcinoma cells (FIG. 10F).
# [19] = tested on: A549; assay: […]-GLO cell viability assay with vorinostat; type: cell-based, human; details: A549 (Lung); 1 μg/ml + 10 μM Vorinostat
# [20] = tested on: LNCap; assay: […]-GLO cell viability assay with vorinostat; type: cell-based, human; details: LNCap (Prostate); 1 μg/ml + 10 μM Vorinostat
# [21] = tested on: SKOV3; assay: […]-GLO cell viability assay with vorinostat; type: cell-based; details: SKOV3 (Ovary); 1 μg/ml + 1 μM Vorinostat
Molecule,Net Gain (Average % Growth Inhibition) [1] [%],Net Gain (Average % Growth Inhibition) [2] [%],Net Gain (Average % Growth Inhibition) [3] [%],Net Gain (Average % Growth Inhibition) [4] [%],Net Gain (Average % Growth Inhibition) [5] [%],Net Gain (Average % Growth Inhibition) [6] [%],Net Gain (Average % Growth Inhibition) [7] [%],Net Gain (Average % Growth Inhibition) [8] [%],epitope comparison by competition [9],amount of immobilized biotinylated antibody ([9]; 10 μg/mL competitor mIgG),Kd [10] [nM],ka [10],kd [10],Net Gain (Average % Growth Inhibition) [11] [%],% Inhibition (Average) [12] [%],Net Gain (Average % Growth Inhibition) [13] [%],Net Gain (Average % Growth Inhibition) [14] [%],labeling of cells of lung cancer tissue [15],labeling of cells of colon cancer tissue [16],labeling of cells of normal tissue [17],further results
B1,0.22,2.86,0.95,0.69,0.36,7.49,0.20,0.11,bind to different epitopes,2.102,0.42,2.4 × 10^5,1.0 × 10^−4,5.11,3.61,2.23,2.33,strongly label,strongly label,failed to label,amount of immobilized biotinylated antibody ([9]; 10 μg/mL competitor DR5 mAb 1): 2.377; potency in inducing cytotoxicity versus reference DR5 mAbs [18]: more potent; Net Gain (Average % Growth Inhibition) [19]: 6.48%; Net Gain (Average % Growth Inhibition) [20]: 4.49%; Net Gain (Average % Growth Inhibition) [21]: 1.75%
B2,0.22,1.75,0.95,0.69,0.12,7.49,0.20,0.11,bind to different epitopes,2.162,32.5,4.0 × 10^6,1.3 × 10^−1,5.11,3.5,2.15,0.64,strongly label,strongly label,failed to label,amount of immobilized biotinylated antibody ([9]; 10 μg/mL competitor DR5 mAb 2): 0.826; potency in inducing cytotoxicity versus reference DR5 mAbs [18]: more potent; Net Gain (Average % Growth Inhibition) [19]: 6.48%; Net Gain (Average % Growth Inhibition) [20]: 3.81%; Net Gain (Average % Growth Inhibition) [21]: 1.75%
